What all share (test): filter
Data set [1] deals with bovine serum albumin (BSA) (Bos taurus) (UniProt P02769). The note with it: 100 nM BSA.
Data set [2] has as its target T1, myeloperoxidase (MPO) (Homo sapiens) (UniProt P05164).
T1 sequence: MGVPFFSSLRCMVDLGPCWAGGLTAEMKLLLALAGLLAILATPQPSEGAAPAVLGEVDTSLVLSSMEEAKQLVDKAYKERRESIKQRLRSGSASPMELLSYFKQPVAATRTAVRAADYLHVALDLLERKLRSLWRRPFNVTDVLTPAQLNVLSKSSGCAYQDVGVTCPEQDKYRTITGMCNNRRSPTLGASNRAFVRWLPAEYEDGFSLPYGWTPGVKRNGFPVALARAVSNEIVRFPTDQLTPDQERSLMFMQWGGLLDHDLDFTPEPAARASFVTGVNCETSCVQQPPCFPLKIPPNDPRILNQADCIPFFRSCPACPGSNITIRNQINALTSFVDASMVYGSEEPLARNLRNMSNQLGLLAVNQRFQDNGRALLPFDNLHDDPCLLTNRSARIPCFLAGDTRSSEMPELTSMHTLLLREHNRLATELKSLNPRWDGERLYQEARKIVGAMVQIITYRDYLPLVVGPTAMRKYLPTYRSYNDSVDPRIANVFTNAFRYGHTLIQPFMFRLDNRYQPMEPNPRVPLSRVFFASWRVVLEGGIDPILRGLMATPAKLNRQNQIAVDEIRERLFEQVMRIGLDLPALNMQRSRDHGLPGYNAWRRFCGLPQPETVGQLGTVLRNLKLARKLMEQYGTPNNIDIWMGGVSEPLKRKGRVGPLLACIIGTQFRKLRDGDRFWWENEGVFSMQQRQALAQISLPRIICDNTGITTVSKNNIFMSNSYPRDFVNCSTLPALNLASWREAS
The note with it: 100 nM MPO; 2.66 at 50 nM; 1.49 without protein.

Data set [3] deals with ΔNS3 protein (NS3 protease domain) (Hepatitis C virus) (UniProt P26662). The note with it: 100 nM protein; 4.9 at 50 nM; 0.1 without protein; Tris pH 7.8, Mg2+, Ca2+.

Chain of bovine serum albumin (BSA) (Bos taurus) (P02769 25-607): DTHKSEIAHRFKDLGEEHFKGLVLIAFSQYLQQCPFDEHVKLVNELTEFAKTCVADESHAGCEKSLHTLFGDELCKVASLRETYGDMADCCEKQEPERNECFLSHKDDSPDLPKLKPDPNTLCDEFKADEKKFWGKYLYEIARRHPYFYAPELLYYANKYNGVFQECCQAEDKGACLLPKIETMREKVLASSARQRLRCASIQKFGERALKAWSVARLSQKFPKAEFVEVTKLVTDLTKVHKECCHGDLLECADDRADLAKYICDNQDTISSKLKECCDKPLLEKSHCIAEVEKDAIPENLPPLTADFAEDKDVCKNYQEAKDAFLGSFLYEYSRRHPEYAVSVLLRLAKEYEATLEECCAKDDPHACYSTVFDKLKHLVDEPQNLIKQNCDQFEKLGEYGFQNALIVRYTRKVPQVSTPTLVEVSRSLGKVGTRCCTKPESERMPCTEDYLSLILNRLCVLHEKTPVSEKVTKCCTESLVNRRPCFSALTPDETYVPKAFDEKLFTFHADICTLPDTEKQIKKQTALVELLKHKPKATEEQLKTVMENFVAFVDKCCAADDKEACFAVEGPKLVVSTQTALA

With “GGUAGAUACGAUGGANNNNNNNNNNNNNNNNNNNNNNNNNNNNNNCAUGACGCGCAGCCA [RNA pool 2]”, the binding signal was 1.86 % bound in data set [1] and 1.7 % bound in data set [2].
The sequence “GGGAGGUGGAACUGAAGGAGANNNNNNNNNNNNNNNNNNNNNNNNNNNNNNNNNNNNNNNNNNNNNNNNNNNNNNNACUUCGCAAUCGCUCUACGCA [RNA pool (generation zero)]” gave a binding signal in data set [3] of 8.1 % bound.

The values are drawn from US20100129870.
